These results are taken from article PMC6458996, “Sostdc1: A soluble BMP and Wnt antagonist that is induced by the interaction between myeloma cells and osteoblast lineage cells” (Bone, 2019).

Where only a bound is given, the exact number is not on record here.

Assay [1] deals with recombinant murine low density lipoprotein receptor-related protein 6 (LRP6) (mouse) (UniProt O88572). Nature of the assay: BLI; Amine reactive 2nd generation (AR2G) biosensors (ForteBio, BLItz); analyte at multiple concentrations from 0 to 100 ug/ml; global fit to a simple 1:1 Langmuir model; which partner was immobilised is not stated outright (the legend speaks of 100 ug/ml of Sostdc1 binding to rmLRP6, BMP2 and BMP7). (In general: BLI is a label-free optical method that tracks binding on a fibre tip over time.)

The target in assay [2] is T1, recombinant murine Sostdc1 (sclerostin domain containing 1) (mouse, UniProt Q9CQN4 24-206).
T1 construct: sclerostin domain containing 1 (Sostdc1), murine recombinant protein; also called recombinant Sostdc1; murine recombinant Sostdc1
T1 sequence (looked up): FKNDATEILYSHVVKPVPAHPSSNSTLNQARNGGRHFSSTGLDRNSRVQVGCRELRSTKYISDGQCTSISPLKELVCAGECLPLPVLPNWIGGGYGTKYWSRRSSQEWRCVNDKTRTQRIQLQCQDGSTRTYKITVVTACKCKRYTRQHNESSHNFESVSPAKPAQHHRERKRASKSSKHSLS
The description is as above. Conditions: both partners purified.

recombinant murine low density lipoprotein receptor-related protein 6 (LRP6) (mouse), sequence (O88572 20-1613): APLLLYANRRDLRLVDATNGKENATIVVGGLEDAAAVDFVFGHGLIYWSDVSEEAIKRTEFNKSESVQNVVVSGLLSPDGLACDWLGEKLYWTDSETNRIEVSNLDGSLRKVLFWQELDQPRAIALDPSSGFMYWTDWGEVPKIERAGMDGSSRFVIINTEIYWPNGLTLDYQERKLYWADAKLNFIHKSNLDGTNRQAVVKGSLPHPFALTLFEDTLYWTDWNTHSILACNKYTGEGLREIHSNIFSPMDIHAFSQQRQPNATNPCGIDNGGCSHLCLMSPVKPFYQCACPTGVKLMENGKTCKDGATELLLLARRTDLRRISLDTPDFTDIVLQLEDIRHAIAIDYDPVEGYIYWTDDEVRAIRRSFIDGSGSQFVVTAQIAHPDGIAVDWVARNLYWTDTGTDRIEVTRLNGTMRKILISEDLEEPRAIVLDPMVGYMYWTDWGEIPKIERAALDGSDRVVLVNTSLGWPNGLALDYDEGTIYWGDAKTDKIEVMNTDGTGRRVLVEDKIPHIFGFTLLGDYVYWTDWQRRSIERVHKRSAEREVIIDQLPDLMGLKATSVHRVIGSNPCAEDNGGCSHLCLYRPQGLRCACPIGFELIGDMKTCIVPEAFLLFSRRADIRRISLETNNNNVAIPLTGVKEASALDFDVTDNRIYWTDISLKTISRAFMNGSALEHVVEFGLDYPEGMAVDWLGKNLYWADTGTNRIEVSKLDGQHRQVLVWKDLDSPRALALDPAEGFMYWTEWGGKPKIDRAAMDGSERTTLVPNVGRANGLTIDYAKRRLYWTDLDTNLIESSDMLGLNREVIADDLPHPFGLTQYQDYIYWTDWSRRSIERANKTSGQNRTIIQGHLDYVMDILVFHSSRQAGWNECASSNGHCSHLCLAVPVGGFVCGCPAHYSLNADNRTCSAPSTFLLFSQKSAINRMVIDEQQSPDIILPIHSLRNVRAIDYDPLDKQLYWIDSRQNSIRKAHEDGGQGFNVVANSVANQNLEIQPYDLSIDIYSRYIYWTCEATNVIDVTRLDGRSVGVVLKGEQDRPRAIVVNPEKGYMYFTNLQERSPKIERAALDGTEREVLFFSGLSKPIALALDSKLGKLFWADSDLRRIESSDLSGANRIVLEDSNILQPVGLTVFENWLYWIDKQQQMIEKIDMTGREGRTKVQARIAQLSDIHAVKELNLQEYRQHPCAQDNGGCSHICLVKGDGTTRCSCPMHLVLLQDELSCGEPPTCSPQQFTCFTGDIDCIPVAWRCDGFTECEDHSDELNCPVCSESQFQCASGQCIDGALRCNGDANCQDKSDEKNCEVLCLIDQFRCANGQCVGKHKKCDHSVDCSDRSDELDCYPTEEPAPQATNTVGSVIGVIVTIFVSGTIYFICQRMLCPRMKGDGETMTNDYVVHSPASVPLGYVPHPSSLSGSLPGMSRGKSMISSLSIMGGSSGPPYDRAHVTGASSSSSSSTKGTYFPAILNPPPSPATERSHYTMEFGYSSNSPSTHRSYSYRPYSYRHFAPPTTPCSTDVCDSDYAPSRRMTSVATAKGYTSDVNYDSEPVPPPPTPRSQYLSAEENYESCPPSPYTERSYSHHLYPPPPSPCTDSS

Consider “recombinant murine Sostdc1 (sclerostin domain containing 1) (from UniProt Q9CQN4 24-206) (natural protein)”, for which the Kd in assay [1] worked out at 0.85 nM.

B1: bone morphogenetic protein 2 (BMP2) (ligand, UniProt P12643 283-396, looked up)
chain: QAKHKQRKRLKSSCKRHPLYVDFSDVGWNDWIVAPPGYHAFYCHGECPFPLADHLNSTNHAIVQTLVNSVNSKIPKACCVPTELSAISMLYLDENEKVVLKNYQDMVVEGCGCR
notes: BMP2, recombinant protein; also called BMP2 ligand protein
Take B1: the dissociation constant Kd in assay [2] is 9.57 nM.

B2: bone morphogenetic protein 7 (BMP7) (ligand, UniProt P18075 293-431, looked up)
chain: STGSKQRSQNRSKTPKNQEALRMANVAENSSSDQRQACKKHELYVSFRDLGWQDWIIAPEGYAAYYCEGECAFPLNSYMNATNHAIVQTLVHFINPETVPKPCCAPTQLNAISVLYFDDSSNVILKKYRNMVVRACGCH
notes: BMP7, recombinant protein; also called ligand BMP7 protein
B2: the Kd in assay [2] is under 0.001 nM.

A word on the Kd: it is the equilibrium constant for the complex coming apart.
